For data set [1] the following is noted: cited from earlier work.
The conditions of data set [2]: cited from earlier work. The source holds these as a separate data set.
The subject of data set [3] is intramuscular bacterial infections (E. coli, left posterior thigh). The experiment in a line: Gamma camera imaging, T/B ratios from ROI analysis of scintigrams (Example 1, Table 1). The format is in vivo, New Zealand white rabbits. Particulars: for average Target:Background (T/B) ratio, gamma camera images: Average of 2 rabbits. How it is done: (§1) In order to label G-CSF with radioindium (^111In), G-CSF was conjugated with diethylenetriaminepentacetic acid (DTPA) via the active ester. DTPA conjugated G-CSF was labeled with In-111 and injected into rabbits bearing intramuscular bacterial infections. Two New Zealand white rabbits weighing approximately 2-3 kg were injected in their left posterior thigh with a 0.5 ml suspension of ˜10^9 E. coli for infection imaging and biodistribution studies. Animals were injected with In-111-DTPA-G-CSF at 24 hr after bacterial injection, when the animals were judged to have moderate infections by palpation.
[…], the animals were anesthetized with ketamine/xylazine (15.0 and 1.5 mg/kg) and scintigrams were acquired using a large field of view gamma camera equipped with a parallel hole medium energy collimator. Regions-of-interest (ROI's) were drawn over the area of infection and the contralateral normal muscle and target-to-background (T/B) ratios were calculated. After acquiring the final images, the animals were sacrificed with an over dose of sodium pentobarbital and biodistribution was determined. For comparison with the imaging results, infected to normal muscle and pus to normal muscle ratios were calculated from biodistribution data.

Data set [4] shares this test system. The format is in vivo, New Zealand white rabbits. The note with it: from biodistribution data. How it is done: as §1
At 4 and 18 hours following injection of the In-111-DTPA-G-CSF, the animals were anesthetized with ketamine/xylazine (15.0 and 1.5 mg/kg) and scintigrams were acquired using a large field of view gamma camera equipped with a parallel hole medium energy collimator. Regions-of-interest (ROI's) were drawn over the area of infection and the contralateral normal muscle and target-to-background (T/B) ratios were calculated. After acquiring the final images, the animals were sacrificed with an over dose of sodium pentobarbital and biodistribution was determined. For comparison with the imaging results, infected to normal muscle and pus to normal muscle ratios were calculated from biodistribution data.

The mark [5] stands for this setting: after intravenous administration over 30 min.
[6] abbreviates: Average, 18 Hours Post Injection.
Where [7] appears, read: Rabbit #1, 18 Hours Post Injection.
The mark [8] stands for this setting: Rabbit #2, 18 Hours Post Injection.

Like-named read-outs stand apart in the source and are kept apart here.

On to “GM-CSF: colony stimulating factor promoting growth of progenitors of several myeloid lines”, for which, in data set [1] (setting [5]), the “distribution half-life (T sub ½ alpha)” value was 5 to 15 min and the “elimination phase (T sub ½ Beta)” value was 1 to 9 h. In addition, the “time to peak serum concentration” value in data set [1] (after single subcutaneous bolus injections) is recorded as not above 4 h. Further, in data set [1] (single subcutaneous bolus injections, doses of 10 mμ g/kg), the elimination half-life is 174 min. Moreover, the serum concentration achieved entry in data set [1] (subcutaneous doses of 5-10 mμ g/kg, for 8-24 h) is given as “>= 10 ng/mL”. Besides, in data set [1] (subcutaneous doses of 5-10 mμ g/kg), the “time serum concentrations >=10 ng/mL are achieved” value is 8 to 24 h.

B1: G-CSF: full length protein, polypeptide or peptide corresponding to natural G-CSF that binds to a CSF receptor (protein, UniProt P09919 31-207, looked up)
Granulocyte …: TPLGPASSLPQSFLLKCLEQVRKIQGDGAALQEKLVSECATYKLCHPEELVLLGHSLGIPWAPLSSCPSQALQLAGCLSQLHSGLFLYQGLLQALEGISPELGPTLDTLQLDVADFATTIWQQMEELGMAPALQPTQGAMPAFASAFQRRAGGVLVASHLQSFLEVSYRVLRHLAQP
With B1, the serum concentration maintained in data set [2] (after doses of 5-10 μg/kg, for up to 16 h) is more than 10 ng/mL. Further, the “time serum concentrations of >10 ng/mL are maintained” value in data set [2] (after doses of 5-10 mμ g/kg) is listed as “up to 16 h”. Further, the “time C sub max values are maintained” value in data set [2] (after short (20-30 min) intravenous infusions) is 30 to 60 min. Further, the estimated terminal half-life in data set [2] (after short intravenous infusions, doses up to 60 μg/kg) is 45 to 432 min. The “serum concentration by 24 h” value in data set [2] (after single subcutaneous injections, by 24 h) is less than 10 % C sub max. In data set [2] (after single subcutaneous injections), the “time to peak serum concentration” value is 4 to 6 h.

B2: In-111-DTPA-GCSF: G-CSF conjugated with diethylenetriaminepentacetic acid (DTPA) via the active ester and labeled with In-111 (conjugate, UniProt P09919 31-207, looked up)
Granulocyte …: TPLGPASSLPQSFLLKCLEQVRKIQGDGAALQEKLVSECATYKLCHPEELVLLGHSLGIPWAPLSSCPSQALQLAGCLSQLHSGLFLYQGLLQALEGISPELGPTLDTLQLDVADFATTIWQQMEELGMAPALQPTQGAMPAFASAFQRRAGGVLVASHLQSFLEVSYRVLRHLAQP
modifications: DTPA conjugate labeled with In-111
As for B2, the “T/B ratio calculated from ROI analysis of scintigrams” value in data set [3] (3 hour after injection) was 3.567; in data set [3] (17 hours after injection), 11.87. Moreover, the results for the “average Target:Background (T/B) ratio, gamma camera images” value in data set [3] (4 hours post injection) and in data set [3] (18 hours post injection) were 3.567 and 11.87, respectively. Moreover, the “Infected to normal tissue ratio from gamma camera images” value in data set [3] (Rabbit #1, 4 hours post injection) was 3.359; in data set [3] (Rabbit #1, 18 hours post injection), 8.643; in data set [3] (Rabbit #2, 4 hours post injection) it was 3.775; in data set [3] (Rabbit #2, 18 hours post injection) it was 15.10. Besides, the “localization at sites of infection (in words)” value in data set [3] (rabbits with E. coli infection) is on record as “effective agent for localizing sites of infection”. The Infected/normal muscle ratio in data set [4] (setting [6]) was determined as 26.24. Besides, the Pus/normal muscle ratio in data set [4] (setting [6]) was 59.16; in data set [4] (setting [7]) it was 23.56; in data set [4] (setting [8]) it was 94.76. Further, the “Infected/normal muscle #1 ratio” value in data set [4] (setting [7]) was found to be 36.89; in data set [4] (setting [8]), 39.21. Further, the “Infected/normal muscle #2 ratio” value in data set [4] (setting [7]) stood at 21.54; in data set [4] (setting [8]), 26.17. The “Infected/normal muscle #3 ratio” value is listed as 20.11 in data set [4] (setting [7]) and 37.03 in data set [4] (setting [8]). Further, the “Infected/normal muscle #4 ratio” value was 20.95 in data set [4] (setting [7]) and 28.44 in data set [4] (setting [8]). In addition, the “Infected/normal muscle #5 ratio” value is 15.63 in data set [4] (setting [7]) and 16.42 in data set [4] (setting [8]).

(Values after US6491893B1, “Compounds for targeting and imaging infection and inflammation” (Biostream, Inc., priority 1999, dated 2002).)
